Experimental data reported in patent publication US20230322953A1 (HARBOUR BIOMED SHANGHAI, published 2023).
Where two headings read alike, the source gives them in different places.

Columns and labels:
[1] = target: T1, cynomolgus monkey CD3 (TCR/CD3 complex) on cynomolgus monkey T cells (cynomolgus monkey); experiment: flow cytometry (FACS) on cynomolgus monkey T cells
T1 construct: whole, on cells

[2] = target: T2, human CD3 (TCR/CD3 complex) on human T cells (human, UniProt P07766 23-207); experiment: flow cytometry (FACS) on human T cells, Experiment 3
T2 construct: whole, on cells
T2 sequence (P07766 23-207, one chain of several): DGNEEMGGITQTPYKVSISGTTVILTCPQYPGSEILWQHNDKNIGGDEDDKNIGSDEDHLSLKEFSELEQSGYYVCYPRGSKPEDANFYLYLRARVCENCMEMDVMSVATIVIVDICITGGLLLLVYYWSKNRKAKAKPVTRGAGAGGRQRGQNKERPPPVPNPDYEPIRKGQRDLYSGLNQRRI

[3] = target: T3, cynomolgus monkey BCMA (ACRO Biosystems, #BCA-C82F4) (cynomolgus monkey, UniProt A0A2K5UD97 1-53); experiment: BLI (Octet Red96e), cyBCMA.Fc on SA sensor, 1:1 global fitting
T3 construct: Bought protein; also called cyBCMA.Fc
T3 sequence (A0A2K5UD97 entry or part of it): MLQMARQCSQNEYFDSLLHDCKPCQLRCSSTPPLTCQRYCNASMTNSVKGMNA

[4] = target: T3, cynomolgus monkey BCMA (ACRO …); experiment: BLI; KD for cynomolgus monkey BCMA divided by KD for human BCMA
[5] = target: T4, biotinylated human BCMA-Fc, Avitag recombinant protein (ACRO Biosystems, #BC7-H82F0) (human, UniProt Q02223 1-54, biotinylated (Avitag)); experiment: BLI (Octet Red96e), biotinylated BCMA-Fc on SA sensor, 1:1 global fitting;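 note: Anti-BCMA antibodies analysed as binding partners of the captured BCMA antigen, with reference signals removed by double referencing before kinetic fitting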
T4 construct: extracellular domain; Bought protein; also called huBCMA.Fc; recombinant human BCMA-ECD-Fc
T4 sequence (looked up): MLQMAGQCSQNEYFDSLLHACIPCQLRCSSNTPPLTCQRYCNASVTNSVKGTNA

[6] = target: T5, human BCMA on NCI-H929 cells (ATCC, CRL-9068) (human, UniProt Q02223 1-184); experiment: cell-based or functional assay
T5 sequence (looked up): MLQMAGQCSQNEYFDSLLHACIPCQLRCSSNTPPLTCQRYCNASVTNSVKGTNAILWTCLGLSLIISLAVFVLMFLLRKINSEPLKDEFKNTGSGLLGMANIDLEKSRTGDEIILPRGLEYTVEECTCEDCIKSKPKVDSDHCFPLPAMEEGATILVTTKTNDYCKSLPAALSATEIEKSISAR

[7] = target: T5, human BCMA on NCI-H929 cells (ATCC, …); experiment: cell-based or functional assay; remark: listed apart in the source
[8] = target: T5, human BCMA on NCI-H929 cells (ATCC, …); experiment: cell-based or functional assay; remark: listed apart in the source
[9] = target: T5, human BCMA on NCI-H929 cells (ATCC, …); experiment: cell-based or functional assay; remark: listed apart in the source

T1 sequence (Q95LI5 22-198, one chain of several): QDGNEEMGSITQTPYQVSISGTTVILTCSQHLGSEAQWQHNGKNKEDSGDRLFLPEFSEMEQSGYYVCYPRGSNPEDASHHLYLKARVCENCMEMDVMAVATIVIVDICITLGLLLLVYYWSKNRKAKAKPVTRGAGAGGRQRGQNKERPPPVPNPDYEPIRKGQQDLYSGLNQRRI

B1: PR002929 (bispecific antibody, human IgG1, lambda, L234A L235A)
light: QAVVTQEPSLTVSPGGTVTLTCRSSTGAVTTSNYANWVQQKPGQAPRGLIGGTNKRAPWTPARFSGSLLGDKAALTLLGAQPEDEAEYFCALWYSNLWVFGGGTKLTVLGQPKAAPSVTLFPPSSEELQANKATLVCLISDFYPGAVTVAWKADSSPVKAGVETTTPSKQSNNKYAASSYLSLTPEQWKSHRSYSCQVTHEGSTVEKTVAPTECS
heavy: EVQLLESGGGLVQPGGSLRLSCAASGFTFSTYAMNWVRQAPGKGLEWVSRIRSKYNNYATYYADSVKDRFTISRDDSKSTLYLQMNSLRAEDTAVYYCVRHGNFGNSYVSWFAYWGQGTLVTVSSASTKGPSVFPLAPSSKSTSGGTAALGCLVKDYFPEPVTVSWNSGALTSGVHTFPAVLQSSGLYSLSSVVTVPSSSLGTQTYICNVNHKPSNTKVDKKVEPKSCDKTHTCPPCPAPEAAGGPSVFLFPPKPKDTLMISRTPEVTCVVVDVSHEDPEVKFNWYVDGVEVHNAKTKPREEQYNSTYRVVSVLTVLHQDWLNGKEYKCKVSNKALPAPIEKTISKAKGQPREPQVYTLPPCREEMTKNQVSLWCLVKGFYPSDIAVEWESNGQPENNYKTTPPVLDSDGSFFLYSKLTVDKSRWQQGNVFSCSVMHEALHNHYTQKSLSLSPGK
chain: EVQLVETGGGLIQPGGSLRLSCAASGFTVSDNYMTWVRQAPGKGLEWVSVIFSGGNTYYADSVKGRFTISRDNAKNTLYLQMNSLRAEDTALYYCARRNYDDTRGTDVFDIWGQGTMVTVSSASEPKSSDKTHTCPPCPAPEAAGGPSVFLFPPKPKDTLMISRTPEVTCVVVDVSHEDPEVKFNWYVDGVEVHNAKTKPREEQYNSTYRVVSVLTVLHQDWLNGKEYKCKVSNKALPAPIEKTISKAKGQPREPQVCTLPPSREEMTKNQVSLSCAVKGFYPSDIAVEWESNGQPENNYKTTPPVLDSDGSFFLVSKLTVDKSRWQQGNVFSCSVMHEALHNHYTQKSLSLSPGK
Maximum MFI [1]: 10100 MFI
Maximum MFI [2]: 283000 MFI
Kd [3]: 6.62 nM
koff [3]: 0.00582 s⁻¹
kon [3]: 879000 M⁻¹ s⁻¹
KD ratio (cy BCMA/hu BCMA) [4]: 1.11
Kd [5]: 5.95 nM
koff [5]: 0.00148 s⁻¹
kon [5]: 249000 M⁻¹ s⁻¹

B2: PR002895 (bispecific antibody, human IgG1, lambda, L234A L235A)
light: B1 light
heavy: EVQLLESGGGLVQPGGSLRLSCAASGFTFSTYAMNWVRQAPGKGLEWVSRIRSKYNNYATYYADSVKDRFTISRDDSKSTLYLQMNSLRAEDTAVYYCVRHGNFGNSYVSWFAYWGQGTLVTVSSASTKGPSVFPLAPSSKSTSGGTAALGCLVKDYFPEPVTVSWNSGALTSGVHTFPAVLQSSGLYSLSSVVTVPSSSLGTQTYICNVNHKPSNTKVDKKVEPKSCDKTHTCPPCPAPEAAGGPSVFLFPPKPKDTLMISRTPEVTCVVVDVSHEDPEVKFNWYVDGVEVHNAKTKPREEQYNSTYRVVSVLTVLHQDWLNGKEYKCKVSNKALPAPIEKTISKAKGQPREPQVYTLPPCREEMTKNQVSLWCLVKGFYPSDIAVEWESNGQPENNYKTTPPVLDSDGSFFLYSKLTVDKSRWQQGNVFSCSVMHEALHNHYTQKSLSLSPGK
chain: EVQLVETGGGLIQPGGSLRLSCAASGFTVSDNYMTWVRQAPGKGLEWVSVIFSGGNTYYADSVKGRFTISRDNAKNTLYLQMNSLRAEDTALYYCARRNYDDTRGTDVFDIWGQGTMVTVSSGGGGSGGGGSGGGGSEVQLVETGGGLIQPGGSLRLSCAASGFTVSDNYMTWVRQAPGKGLEWVSVIFSGGNTYYADSVKGRFTISRDNAKNTLYLQMNSLRAEDTALYYCARRNYDDTRGTDVFDIWGQGTMVTVSSASEPKSSDKTHTCPPCPAPEAAGGPSVFLFPPKPKDTLMISRTPEVTCVVVDVSHEDPEVKFNWYVDGVEVHNAKTKPREEQYNSTYRVVSVLTVLHQDWLNGKEYKCKVSNKALPAPIEKTISKAKGQPREPQVCTLPPSREEMTKNQVSLSCAVKGFYPSDIAVEWESNGQPENNYKTTPPVLDSDGSFFLVSKLTVDKSRWQQGNVFSCSVMHEALHNHYTQKSLSLSPGK
IFN-γ release, EC50 [6]: 0.0223 nM
IFN-γ release, Maximum [6]: 1440 pg/mL
IL-2 release, EC50 [6]: 0.0211 nM
IL-2 release, Maximum [6]: 100 pg/mL
IL-6 release, EC50 [6]: 0.00839 nM
IL-6 release, Maximum [6]: 118 pg/mL
IL-10 release, EC50 [6]: 0.0134 nM
IL-10 release, Maximum [6]: 240 pg/mL
NCI-H929 killing, EC50 [6]: 0.00293 nM
NCI-H929 killing, Maximum killing rate % [6]: 57.9%
TNF-α release, EC50 [6]: 0.00818 nM
TNF-α release, Maximum [6]: 1280 pg/mL
Maximum MFI [1]: 18600 MFI
Maximum MFI [2]: 322000 MFI
Kd [3]: 0.272 nM
koff [3]: 0.000242 s⁻¹
kon [3]: 890000 M⁻¹ s⁻¹
KD ratio (cy BCMA/hu BCMA) [4]: 1.38
Kd [5]: 0.197 nM
koff [5]: 8.11e-05 s⁻¹
kon [5]: 412000 M⁻¹ s⁻¹

B3: PR002309 (bispecific antibody, human IgG1, lambda, L234A L235A)
light: B1 light
heavy: EVQLLESGGGLVQPGGSLRLSCAASGFTFSTYAMNWVRQAPGKGLEWVSRIRSKYNNYATYYADSVKDRFTISRDDSKSTLYLQMNSLRAEDTAVYYCVRHGNFGNSYVSWFAYWGQGTLVTVSSASTKGPSVFPLAPSSKSTSGGTAALGCLVKDYFPEPVTVSWNSGALTSGVHTFPAVLQSSGLYSLSSVVTVPSSSLGTQTYICNVNHKPSNTKVDKKVEPKSCDKTHTCPPCPAPEAAGGPSVFLFPPKPKDTLMISRTPEVTCVVVDVSHEDPEVKFNWYVDGVEVHNAKTKPREEQYNSTYRVVSVLTVLHQDWLNGKEYKCKVSNKALGAPIEKTISKAKGQPREPQVYTLPPCREEMTKNQVSLWCLVKGFYPSDIAVEWESNGQPENNYKTTPPVLDSDGSFFLYSKLTVDKSRWQQGNVFSCSVMHEALHNHYTQKSLSLSPGK
chain: EVQLVETGGGLIQPGGSLRLSCAASGFTVSDNYMTWVRQAPGKGLEWVSVIFSGGNTYYADSVKGRFTISRDNAKNTLYLQMNSLRAEDTALYYCARRNYDDTRGTDVFDIWGQGTMVTVSSRTGGGGSGGGGSGGGGSKLEVQLVETGGGLIQPGGSLRLSCAASGFTVSDNYMTWVRQAPGKGLEWVSVIFSGGNTYYADSVKGRFTISRDNAKNTLYLQMNSLRAEDTALYYCARRNYDDTRGTDVFDIWGQGTMVTVSSASEPKSSDKTHTCPPCPAPEAAGGPSVFLFPPKPKDTLMISRTPEVTCVVVDVSHEDPEVKFNWYVDGVEVHNAKTKPREEQYNSTYRVVSVLTVLHQDWLNGKEYKCKVSNKALGAPIEKTISKAKGQPREPQVCTLPPSREEMTKNQVSLSCAVKGFYPSDIAVEWESNGQPENNYKTTPPVLDSDGSFFLVSKLTVDKSRWQQGNVFSCSVMHEALHNHYTQKSLSLSPGK
IFN-γ release, EC50 [7]: 0.0194 nM
IFN-γ release, Maximum [7]: 1950 pg/mL
IL-2 release, EC50 [7]: 0.0375 nM
IL-2 release, Maximum [7]: 222 pg/mL
IL-6 release, EC50 [7]: 0.195 nM
IL-6 release, Maximum [7]: 209 pg/mL
IL-10 release, EC50 [7]: 0.0298 nM
IL-10 release, Maximum [7]: 1050 pg/mL
NCI-H929 killing, EC50 [7]: 0.00772 nM
NCI-H929 killing, Maximum killing rate % [7]: 69.5%
TNF-α release, EC50 [7]: 0.0445 nM
TNF-α release, Maximum [7]: 1300 pg/mL
Killing EC50 (nM), T cell + NCI-H929, + 10 ng/mL sAPRIL [8]: 0.000538 nM
Killing EC50 (nM), T cell + NCI-H929, + 10 ng/mL sBAFF [8]: 0.000447 nM
Killing EC50 (nM), T cell + NCI-H929, + 100 ng/mL sAPRIL [8]: 0.000991 nM
Killing EC50 (nM), T cell + NCI-H929, + 100 ng/mL sBAFF [8]: 0.000474 nM
Killing EC50 (nM), T cell + NCI-H929, no soluble ligand [8]: 0.000439 nM
Killing EC50 (nM), T cell + NCI-H929, + 62.5 ng/mL sBCMA [9]: 0.00296 nM
Killing EC50 (nM), T cell + NCI-H929, + 125 ng/mL sBCMA [9]: 0.00347 nM
Killing EC50 (nM), T cell + NCI-H929, + 250 ng/mL sBCMA [9]: 0.005 nM
Killing EC50 (nM), T cell + NCI-H929, + 500 ng/ml sBCMA [9]: 0.0088 nM
Killing EC50 (nM), T cell + NCI-H929, no sBCMA [9]: 0.000393 nM
Maximum MFI [1]: 11700 MFI
Maximum MFI [2]: 317000 MFI
Kd [3]: 0.141 nM
koff [3]: 0.000116 s⁻¹
kon [3]: 823000 M⁻¹ s⁻¹
KD ratio (cy BCMA/hu BCMA) [4]: 3.16
Kd [5]: 0.0448 nM
koff [5]: 1.89e-05 s⁻¹
kon [5]: 422000 M⁻¹ s⁻¹

B4: PR003178 (bispecific antibody, human IgG1, lambda, L234A L235A)
light: B1 light
heavy: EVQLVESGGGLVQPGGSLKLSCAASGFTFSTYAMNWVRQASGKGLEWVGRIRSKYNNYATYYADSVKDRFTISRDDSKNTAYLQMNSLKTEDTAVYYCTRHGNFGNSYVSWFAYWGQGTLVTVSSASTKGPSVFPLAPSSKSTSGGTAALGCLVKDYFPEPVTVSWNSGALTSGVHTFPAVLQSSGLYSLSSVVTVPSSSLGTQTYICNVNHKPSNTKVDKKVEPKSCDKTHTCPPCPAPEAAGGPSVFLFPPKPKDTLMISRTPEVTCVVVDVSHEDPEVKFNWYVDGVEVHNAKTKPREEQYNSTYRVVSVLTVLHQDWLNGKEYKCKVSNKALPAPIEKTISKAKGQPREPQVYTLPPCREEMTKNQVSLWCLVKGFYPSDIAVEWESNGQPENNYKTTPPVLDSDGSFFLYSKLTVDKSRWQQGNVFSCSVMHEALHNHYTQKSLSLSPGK
chain: B2 chain
IFN-γ release, EC50 [6]: 0.0595 nM
IFN-γ release, Maximum [6]: 1210 pg/mL
IL-2 release, EC50 [6]: 0.175 nM
IL-2 release, Maximum [6]: 101 pg/mL
IL-6 release, EC50 [6]: 0.0448 nM
IL-6 release, Maximum [6]: 89.7 pg/mL
IL-10 release, EC50 [6]: 0.104 nM
IL-10 release, Maximum [6]: 322 pg/mL
NCI-H929 killing, EC50 [6]: 0.0102 nM
NCI-H929 killing, Maximum killing rate % [6]: 56.8%
TNF-α release, EC50 [6]: 0.0281 nM
TNF-α release, Maximum [6]: 1330 pg/mL
Killing EC50 (nM), PBMC + NCI-H929, + 10 ng/mL sBAFF [8]: 0.005 nM
Killing EC50 (nM), PBMC + NCI-H929, + 10 ng/ml sAPRIL [8]: 0.009 nM
Killing EC50 (nM), PBMC + NCI-H929, + 100 ng/mL sAPRIL [8]: 0.011 nM
Killing EC50 (nM), PBMC + NCI-H929, + 100 ng/mL sBAFF [8]: 0.008 nM
Killing EC50 (nM), PBMC + NCI-H929, no soluble ligand [8]: 0.007 nM
Killing EC50 (nM), PBMC + NCI-H929, + 62.5 ng/ml sBCMA [9]: 0.009 nM
Killing EC50 (nM), PBMC + NCI-H929, + 125 ng/mL sBCMA [9]: 0.014 nM
Killing EC50 (nM), PBMC + NCI-H929, + 250 ng/ml sBCMA [9]: 0.065 nM
Killing EC50 (nM), PBMC + NCI-H929, + 500 ng/ml sBCMA [9]: 0.12 nM
Killing EC50 (nM), PBMC + NCI-H929, no sBCMA [9]: 0.005 nM
Maximum MFI [1]: 10700 MFI
Maximum MFI [2]: 23900 MFI
Kd [3]: 0.319 nM
koff [3]: 0.000262 s⁻¹
kon [3]: 822000 M⁻¹ s⁻¹
KD ratio (cy BCMA/hu BCMA) [4]: 1.35
Kd [5]: 0.236 nM
koff [5]: 0.000117 s⁻¹
kon [5]: 494000 M⁻¹ s⁻¹

B5: PR002953 (bispecific antibody, human IgG1, lambda, L234A L235A)
light: B1 light
heavy: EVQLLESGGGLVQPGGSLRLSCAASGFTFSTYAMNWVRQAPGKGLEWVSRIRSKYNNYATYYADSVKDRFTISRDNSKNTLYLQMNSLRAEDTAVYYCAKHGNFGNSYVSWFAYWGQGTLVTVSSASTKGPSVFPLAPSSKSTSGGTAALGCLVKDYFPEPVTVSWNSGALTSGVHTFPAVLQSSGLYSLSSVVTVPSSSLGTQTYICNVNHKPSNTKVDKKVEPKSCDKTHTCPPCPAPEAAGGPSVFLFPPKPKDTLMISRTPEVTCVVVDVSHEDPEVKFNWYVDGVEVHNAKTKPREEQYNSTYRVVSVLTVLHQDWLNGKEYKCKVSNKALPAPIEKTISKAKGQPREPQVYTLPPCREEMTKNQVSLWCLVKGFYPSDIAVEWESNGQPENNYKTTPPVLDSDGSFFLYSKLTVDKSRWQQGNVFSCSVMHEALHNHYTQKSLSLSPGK
chain: B2 chain
IFN-γ release, EC50 [6]: 0.212 nM
IFN-γ release, Maximum [6]: 640 pg/mL
IL-2 release, EC50 [6]: 0.795 nM
IL-2 release, Maximum [6]: 23.6 pg/mL
IL-6 release, EC50 [6]: 0.128 nM
IL-6 release, Maximum [6]: 68.5 pg/mL
IL-10 release, EC50 [6]: 0.208 nM
IL-10 release, Maximum [6]: 129 pg/mL
NCI-H929 killing, EC50 [6]: 0.047 nM
NCI-H929 killing, Maximum killing rate % [6]: 57.5%
TNF-α release, EC50 [6]: 0.197 nM
TNF-α release, Maximum [6]: 894 pg/mL
Maximum MFI [1]: 9710 MFI
Maximum MFI [2]: 17000 MFI
Kd [3]: 0.195 nM
koff [3]: 7.12e-05 s⁻¹
kon [3]: 365000 M⁻¹ s⁻¹
KD ratio (cy BCMA/hu BCMA) [4]: 0.87
Kd [5]: 0.225 nM
koff [5]: 0.000107 s⁻¹
kon [5]: 474000 M⁻¹ s⁻¹
